Results as given in patent US20060275312A1.
Values belong to the binder of their own block, whether it stands above or below them.

Legend:
[1] = target: human IgE from serum of a representative allergic subject with high IgE reactivity to house dust mite allergens (human); experiment: competitive inhibition ELISA, human serum IgE, GST-Blo t5 on plate
[2] = target: human IgE from serum of a representative allergic subject with high IgE reactivity to house dust mite allergens (human); experiment: competitive inhibition ELISA, human serum IgE, GST-Blo t5 on plate, inhibitor at 10 µg/ml

maximum inhibition of IgE binding to GST-Blo t5 [1]: 70%
B1: Blo t 5-Fve (two-in-one chimeric wild type) fusion protein (protein)
chain: QEHKPKKDDFRNEFDHLLIEQANHAIEKGEHQLLYLQHQLDELNENKSKELQEKIIRELDVVCAMIEGAQGALERELKRTDLNILERFNYEEAQTLSKILLKDLKETEQKVKDIQTQSATSLTFQLAYLVKKIDFDYTPNWGRGTPSSYIDNLTFPKVLTDKKYSYRVVVNGSDLGVESNFAVTPSGGQTINFLQYNKGYGVADTKTIQVFVVIPDTGNSEEYIIAEWKKT

inhibition of IgE binding to GST-Bt5 [2]: 100%
B2: Blo t 5 (recombinant major house dust mite allergen from Blomia tropicalis) (protein)
chain: QEHKPKKDDFRNEFDHLLIEQANHAIEKGEHQLLYLQHQLDELNENKSKELQEKIIRELDVVCAMIEGAQGALERELKRTDLNILERFNYEEAQTLSKILLKDLKETEQKVKDIQTQ
